Measurements as given in patent US5854204A, “Aβ peptides that modulate β-amyloid aggregation” (priority 1996, dated 1998).

Experiments:
Aβ peptide = Aβ peptide (Homo sapiens, UniProt P05067); conditions: Camilleri et al. (1994); cited from earlier work
natural β-AP (β-AP1-40) = target: T1, natural β-AP (β-AP1-40) (Homo sapiens, UniProt P05067); assay: Optical density (turbidity, A400 nm) aggregation assay; format: biochemical
T1 construct: Natural β-AP (β-AP1-40) was obtained commercially from Bachem (Torrance, Calif.); purchased Bachem (Torrance, Calif.)
Protocol: In one assay, β-AP aggregation was measured by determining the increase in turbidity of a solution of natural β-AP over time in the absence or presence of various concentrations of the modulator. Turbidity of the solution was quantitated by determining the optical density at 400 nm (A400 nm) of the solution over time.
The aggregation of natural β-AP in the absence of modulator was determined as follows. β-AP1-40 was dissolved in hexafluoro isopropanol (HFIP; Aldrich Chemical Co., Inc.) at 2 mg/ml. Aliquots of the HFIP solution (87 μl) were transferred to individual 10 mm×75 mm test tubes. A stream of argon gas was passed through each tube to evaporate the HFIP. To the resulting thin film of peptide, dimethylsulfoxide (DMSO; Aldrich Chemical Co., Inc.) (25 μl) was added to dissolve the peptide. A 2 mm×7 mm TEFLON™-coated magnetic stir bar was added to each tube. Buffer (475 μL of 100 mM NaCl, 10 mM sodium phosphate, pH 7.4) was added to the DMSO solution with stirring. The resulting mixture was stirred continuously and the optical density was monitored at 400 nm to observe the formation of insoluble peptide aggregates.
Alternatively, β-AP1-40 was dissolved in DMSO as described above at 1.6 mM (6.9 mg/ml) and aliquots (25 μl) were added to stirred buffer (475 μl), followed by monitoring of absorbance at 400 nm. […]

β-AP1-40 = target: T2, β-AP1-40 (Homo sapiens, UniProt P05067); assay: Static aggregation assay (SDS-PAGE); format: biochemical
T2 construct: Natural β-AP (β-AP1-40) was obtained commercially from Bachem (Torrance, Calif.); purchased Bachem (Torrance, Calif.)
Protocol: In a third assay, β-AP aggregation was measured by visualization of the peptide aggregates using SDS-polyacrylamide gel electrophoresis (SDS-PAGE). In this assay, β-AP solutions were allowed to aggregate over a period of time and then aliquots of the reaction were run on a standard SDS-PAGE gel. Typical solution conditions were 200 μM of β-AP1-40 in PBS at 37° C. for 8 days or 200 μM β-AP1-40 in 0.1M sodium acetate at 37° C. for 3 days. The peptide aggregates were visualized by Coomassie blue staining of the gel or, for β-AP solutions that included a biotinylated β-AP modulator, by western blotting of a filter prepared from the gel with a streptavidin-peroxidase probe, followed by a standard peroxidase assay. The β-AP aggregates are identifiable as high molecular weight, low mobility bands on the gel, which are readily distinguishable from the low molecular weight, high mobility β-AP monomer or dimer bands.

T1 sequence (P05067 672-711): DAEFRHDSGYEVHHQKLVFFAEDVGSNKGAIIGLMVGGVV
T2 sequence (P05067 672-711): as above
Aβ peptide, sequence (P05067 672-711 limits assumed): as the sequence (P05067 672-711) above

OC[C@H]1O[C@@H]2O[C@H]3[C@H](O)[C@@H](O)[C@@H](O[C@H]4[C@H](O)[C@@H](O)[C@@H](O[C@H]5[C@H](O)[C@@H](O)[C@@H](O[C@H]6[C@H](O)[C@@H](O)[C@@H](O[C@H]7[C@H](O)[C@@H](O)[C@@H](O[C@H]8[C@H](O)[C@@H](O)[C@@H](O[C@H]1[C@H](O)[C@H]2O)O[C@@H]8CO)O[C@@H]7CO)O[C@@H]6CO)O[C@@H]5CO)O[C@@H]4CO)O[C@@H]3CO [β-cyclodextrin]
fibril formation in vitro (Aβ peptide): inhibit fibril formation in vitro

N-biotinyl-βAP1-40
aggregation of natural β-AP1-40 (turbidity, optical density at 400 nm) (natural β-AP (β-AP1-40); modulator at 1% in the natural β-AP1-40 solution): markedly inhibited | aggregation of natural β-AP1-40 (turbidity, optical density at 400 nm) (natural β-AP (β-AP1-40); modulator at 5% in the natural β-AP1-40 solution): similarly inhibited aggregation | aggregation of mixture with natural β-AP1-40 (high molecular weight aggregates on SDS-PAGE) (β-AP1-40; mixture of natural β-AP1-40 and modulator): reduced amounts of the peptide mixture associated into high molecular weight aggregates | self-aggregation of the modulator (high molecular weight aggregates on SDS-PAGE) (β-AP1-40; modulator alone, no natural β-AP): few if any high molecular weight aggregates were observed
